EC50 (read off the curve) data for two molecules are collected here from patent US20180134765A1.

The target of this test is human NKG2D (Example 6 binding ELISA) (human) (UniProt P26718). As to the kind of experiment: binding ELISA of the HER2 antibody heavy chain fusion on human NKG2D. Background: An ELISA detects its analyte on a solid surface through an enzyme-linked reagent.
Sequence of human NKG2D (Example 6 binding ELISA) (human) (P26718 78-216 limits assumed): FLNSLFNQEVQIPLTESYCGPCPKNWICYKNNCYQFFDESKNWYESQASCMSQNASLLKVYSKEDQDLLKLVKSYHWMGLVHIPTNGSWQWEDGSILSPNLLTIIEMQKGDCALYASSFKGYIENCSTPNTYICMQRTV

B1: Her2-specific antibody heavy chain fusion to ULBP3 α1-α2 variant R162G (antibody, part only; not given: Anti-HER2 heavy and light chains, not shown: another chain or arm of the molecule; small tags and cut ends)
chain: AAEPHSLWYNFTIIHLPRHGQQWCEVQSQVDQKNFLSYDCGSDKVLSMGHLEEQLYATDAWGKQLEMLREVGQRLRLELADTELEDFTPSGPLTLQVRMSCESEADGYIRGSWQFSFDGRKFLLFDSNNRKWTVVHAGARRMKEKWEKDSGLTTFFKMVSMGDCKSWLRDFLMHRKKRLEPTAP
The term EC50 (read off the curve) denotes the concentration that produces a half-maximal response. A low value points to higher potency in that assay. Take B1: the EC50 (read off the curve) came out at 0.4 nM.

B2: Her2-specific antibody heavy chain fusion to ULBP2 α1-α2 variant R80W (antibody, part only; not given: Anti-HER2 heavy and light chains, not shown: another chain or arm of the molecule; small tags and cut ends)
chain: AAEPHSLSYDITVIPKFRPGPRWCAVQGQVDEKTFLHYDCGNKTVTPVSPLGKKLNVTTAWKAQNPVLREVVDILTEQLWDIQLENYTPKEPLTLQARMSCEQKAEGHSSGSWQFSFDGQIFLLFDSEKRMWTTVHPGARKMKEKWENDKVVAMSFHYFSMGDCIGWLEDFLMGMDSTLEPSAGAP
Turning to B2, the EC50 (read off the curve) is 1 to 2 nM.
